Test system: Escherichia coli TOP10
Test: shrunken log2 fold change of peptide-encoding DNA abundance (4.5 h post-induction vs induction); higher = less antimicrobial activity (less host growth inhibition)
Conditions: time post-induction: 4.5 h; library: site-saturation at positions 5, 18, 19, 20
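Further: peptides expressed intracellularly from a pBAD plasmid library in pooled LB shake-flask culture, induced with 0.3% L-arabinose, DNA abundance read by NGS, three biological replicates, DESeq2 with apeglm shrinkage.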

| Sequence | shrunken log2 fold change |
| --- | --- |
| RRIRLRPPRLPRPRPRPEGGPRP | 0.0449 |
| RRIRLRPPRLPRPRPRPEGPPRP | 0.539 |
| RRIRLRPPRLPRPRPRPEHWPRP | 0.4 |
| RRIRLRPPRLPRPRPRPEIDPRP | -0.0103 |
| RRIRLRPPRLPRPRPRPEIGPRP | 0.0748 |
| RRIRLRPPRLPRPRPRPELCPRP | 0.173 |
| RRIRLRPPRLPRPRPRPELLPRP | 0.335 |
| RRIRLRPPRLPRPRPRPEMDPRP | -0.059 |
| RRIRLRPPRLPRPRPRPEMNPRP | 0.176 |
| RRIRLRPPRLPRPRPRPEMQPRP | 0.0197 |
| RRIRLRPPRLPRPRPRPEMWPRP | 0.204 |
| RRIRLRPPRLPRPRPRPENMPRP | -0.4 |
| RRIRLRPPRLPRPRPRPENQPRP | -0.0987 |
| RRIRLRPPRLPRPRPRPEPCPRP | 0.0808 |
| RRIRLRPPRLPRPRPRPEPKPRP | 0.238 |
| RRIRLRPPRLPRPRPRPEPVPRP | 2.62 |
| RRIRLRPPRLPRPRPRPERAPRP | 0.705 |
| RRIRLRPPRLPRPRPRPESLPRP | 0.157 |
| RRIRLRPPRLPRPRPRPETVPRP | 0.0594 |
| RRIRLRPPRLPRPRPRPEWDPRP | 0.273 |
| RRIRLRPPRLPRPRPRPEWGPRP | 0.504 |
| RRIRLRPPRLPRPRPRPEYIPRP | -0.312 |
| RRIRLRPPRLPRPRPRPEYKPRP | -0.438 |
| RRIRLRPPRLPRPRPRPFAVPRP | -0.0849 |
| RRIRLRPPRLPRPRPRPFAWPRP | -0.00134 |

| Sequence | shrunken log2 fold change |
| --- | --- |
| RRIRLRPPRLPRPRPRPFCCPRP | -0.255 |
| RRIRLRPPRLPRPRPRPFCVPRP | -0.265 |
| RRIRLRPPRLPRPRPRPFDRPRP | -0.38 |
| RRIRLRPPRLPRPRPRPFDTPRP | -0.167 |
| RRIRLRPPRLPRPRPRPFDVPRP | -0.0798 |
| RRIRLRPPRLPRPRPRPFIDPRP | -0.439 |
| RRIRLRPPRLPRPRPRPFILPRP | -0.978 |
| RRIRLRPPRLPRPRPRPFLNPRP | -0.172 |
| RRIRLRPPRLPRPRPRPFNNPRP | -0.426 |
| RRIRLRPPRLPRPRPRPFNPPRP | -0.349 |
| RRIRLRPPRLPRPRPRPFPDPRP | -0.0465 |
| RRIRLRPPRLPRPRPRPFPQPRP | -0.0558 |
| RRIRLRPPRLPRPRPRPFQVPRP | -0.0146 |
| RRIRLRPPRLPRPRPRPFTLPRP | -0.192 |
| RRIRLRPPRLPRPRPRPFVPPRP | -0.162 |
| RRIRLRPPRLPRPRPRPFVSPRP | -0.281 |
| RRIRLRPPRLPRPRPRPFWSPRP | -0.162 |
| RRIRLRPPRLPRPRPRPFWTPRP | 0.0168 |
| RRIRLRPPRLPRPRPRPFWWPRP | 0.483 |
| RRIRLRPPRLPRPRPRPFYNPRP | -0.584 |
| RRIRLRPPRLPRPRPRPGAQPRP | 0.0336 |
| RRIRLRPPRLPRPRPRPGEAPRP | 0.214 |
| RRIRLRPPRLPRPRPRPGEVPRP | 0.117 |
| RRIRLRPPRLPRPRPRPGGDPRP | 0.152 |
| RRIRLRPPRLPRPRPRPGGYPRP | -0.192 |

| Sequence | shrunken log2 fold change |
| --- | --- |
| RRIRLRPPRLPRPRPRPGMDPRP | 0.126 |
| RRIRLRPPRLPRPRPRPGMPPRP | -0.15 |
| RRIRLRPPRLPRPRPRPGNRPRP | -1.09 |
| RRIRLRPPRLPRPRPRPGNSPRP | -0.0133 |
| RRIRLRPPRLPRPRPRPGRSPRP | 0.326 |
| RRIRLRPPRLPRPRPRPGTVPRP | -0.0516 |
| RRIRLRPPRLPRPRPRPGTYPRP | 0.386 |
| RRIRLRPPRLPRPRPRPGVVPRP | 0.27 |
| RRIRLRPPRLPRPRPRPGWQPRP | 0.175 |
| RRIRLRPPRLPRPRPRPGYEPRP | -0.11 |
| RRIRLRPPRLPRPRPRPGYLPRP | -0.282 |
| RRIRLRPPRLPRPRPRPHCAPRP | -0.309 |
| RRIRLRPPRLPRPRPRPHDCPRP | -0.0305 |
| RRIRLRPPRLPRPRPRPHDFPRP | -0.205 |
| RRIRLRPPRLPRPRPRPHDNPRP | -0.526 |
| RRIRLRPPRLPRPRPRPHDSPRP | 0.0936 |
| RRIRLRPPRLPRPRPRPHEAPRP | 0.107 |
| RRIRLRPPRLPRPRPRPHFAPRP | -0.0165 |
| RRIRLRPPRLPRPRPRPHFRPRP | -0.102 |
| RRIRLRPPRLPRPRPRPHFWPRP | 0.144 |
| RRIRLRPPRLPRPRPRPHGVPRP | -0.0127 |
| RRIRLRPPRLPRPRPRPHHEPRP | 0.0418 |
| RRIRLRPPRLPRPRPRPHKNPRP | -0.256 |
| RRIRLRPPRLPRPRPRPHLHPRP | -0.424 |
| RRIRLRPPRLPRPRPRPHMIPRP | -0.672 |
